Patent US20190062453A1 (Hoffmann-La Roche, published 2019)
One block for each binder: values may come before it.

Key:
[1] = molecular target: T1, Human FAP ectodomain + poly-lys-tag + his6-tag (human, UniProt Q12884 27-760); assay: Affinity human, method not stated
T1 construct: also called recombinant soluble human FAP; hFAP

[2] = molecular target: T2, Cynom. DR5 (ECD)-AcTev-Fc-Avi (cynomolgus); assay: SPR (Biacore), 2+2 over immobilised DR5 ECD
T2 construct: also called cynomolgus DR5; cy DR5

[3] = molecular target: T3, human DR5 (recombinant, fusion format not stated for the assay) (human, UniProt O14763 56-207); assay: SPR (Biacore), 2+2 over immobilised DR5 ECD
T3 construct: all antigen constructs carry ECD aa 56-207; also called hu DR5; huDR5

[4] = molecular target: murine FAP on recombinant 3T3 cells (murine, UniProt P97321 1-761); assay: cell-based or functional assay
[5] = molecular target: T2, Cynom. DR5 (ECD)-AcTev-Fc-Avi; assay: SPR (Biacore), affinity, 2+2 captured and DR5 injected
[6] = molecular target: T3, human DR5 (recombinant, fusion format …); assay: as above
[7] = molecular target: T1, Human FAP ectodomain + poly-lys-tag + …; assay: SPR (Biacore), bispecific antibody bound to immobilised human DR5-Fc, recombinant human FAP as second analyte (simultaneous binding)
[8] = molecular target: T4, cynomolgus DR5 in the TagLite assay (cynomolgus); assay: TagLite TR-FRET on cells
T4 construct: also called cy DR5 (TagLite)

[9] = molecular target: T5, Murine FAP ectodomain + poly-lys-tag + his6-tag (murine, UniProt P97321 27-761); assay: SPR (Biacore), bispecific antibody bound to immobilised human DR5-Fc, recombinant soluble murine FAP as second analyte (simultaneous binding)
T5 construct: also called recombinant soluble murine FAP

[10] = molecular target: T6, Hu DR5 (ECD)-AcTev-Fc-Avi (human); assay: SPR (Biacore), biotinylated human DR5-Fc on a streptavidin chip, bispecific antibody as first analyte
T6 construct: dimeric Fc fusion, biotinylated on the Avi tag where immobilised on streptavidin; also called human DR5-Fc; huDR5Fc

[11] = molecular target: T1, Human FAP ectodomain + poly-lys-tag + …; assay: SPR (Biacore), bispecific antibody bound to immobilised human DR5-Fc, recombinant soluble human FAP as second analyte (simultaneous binding)
[12] = molecular target: T7, human FAP on cells (human, UniProt Q12884 1-760); assay: FACS on recombinant HEK293 cells expressing human FAP
T7 construct: whole, on cells; also called human FAP expressed on recombinant HEK293 cells; FAP on GM05389 fibroblasts

Kd [1]: 2.6 nM
B1: 28H1 (antibody, V domains shown)
VH: EVQLLESGGGLVQPGGSLRLSCAASGFTFSSHAMSWVRQAPGKGLEWVSAIWASGEQYYADSVKGRFTISRDNSKNTLYLQMNSLRAEDTAVYYCAKGWLGNFDYWGQGTLVTVSS
VL: EIVLTQSPGTLSLSPGERATLSCRASQSVSRSYLAWYQQKPGQAPRLLIIGASTRATGIPDRFSGSGSGTDFTLTISRLEPEDFAVYYCQQGQVIPPTFGQGTKVEIK
notes: also called FAP(28H1); 28H1 (IgG)

Avidity [2]: 3.72 nM
Avidity [3]: 0.1 nM
Kd [5]: 20.2 nM
Kd [6]: 9.8 nM
binding result [7]: binds
Avidity [8]: 0.3 nM
B2: DR5TAA-0033 (bispecific antibody, human IgG1, kappa)
heavy: not shown
light: ADIVMTQTPASVSEPVGGTVTIKCQASQSISTYLSWYQQKPGQPPKRLIYKASTLASGVPSRFKGSGSGTDFTLTIRDLECADAATYYCQPNSGIATYGAAFGGGTEVVVKRTVAAPSVFIFPPSDEQLKSGTASVVCLLNNFYPREAKVQWKVDNALQSGNSQESVTEQDSKDSTYSLSSTLTLSKADYEKHKVYACEVTHQGLSSPVTKSFNRGEC
chain: EIVLTQSPGTLSLSPGERATLSCRASQSVSRSYLAWYQQKPGQAPRLLIIGASTRATGIPDRFSGSGSGTDFTLTISRLEPEDFAVYYCQQGQVIPPTFGQGTKVEIKSSASTKGPSVFPLAPSSKSTSGGTAALGCLVKDYFPEPVTVSWNSGALTSGVHTFPAVLQSSGLYSLSSVVTVPSSSLGTQTYICNVNHKPSNTKVDKKVEPKSCD
notes: also called 0011-28H1
Cell Death Detection ELISA, DLD-1 cells with 3T3 cells expressing murine FAP [4]: 10 fold

binding result [9]: binds
binding result [10]: binds
binding result [11]: binds
binding result [12]: binds
B3: Drozitumab-X-FAP_A (2 + 2) (bispecific antibody, human IgG1, lambda)
heavy: not shown
chain: EIVLTQSPGTLSLSPGERATLSCRASQSVSRSYLAWYQQKPGQAPRLLIIGASTRATGIPDRFSGSGSGTDFTLTISRLEPEDFAVYYCQQGQVIPPTFGQGTKVEIKSSASTKGPSVFPLAPSSKSTSGGTAALGCLVKDYFPEPVTVSWNSGALTSGVHTFPAVLQSSGLYSLSSVVTVPSSSLGTQTYICNVNHKPSNTKVDKKVEPKSCD
light: SELTQDPAVSVALGQTVRITCSGDSLRSYYASWYQQKPGQAPVLVIYGANNRPSGIPDRFSGSSSGNTASLTITGAQAEDEADYYCNSADSSGNHVVFGGGTKLTVLGQPKAAPSVTLFPPSSEELQANKATLVCLISDFYPGAVTVAWKADSSPVKAGVETTTPSKQSNNKYAASSYLSLTPEQWKSHRSYSCQVTHEGSTVEKTVAPTECS
notes: 4G8 VH-CL fused to the C-terminus of the Drozitumab heavy chain; also called GA803_A01_E02A_014
